Reference: PMC2756588

T1: Lsb1, P53281
T1 sequence (P53281 45-122, looked up): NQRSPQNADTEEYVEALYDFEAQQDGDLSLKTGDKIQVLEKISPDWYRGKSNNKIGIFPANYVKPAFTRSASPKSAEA

T2: Nbp2, Q12163
T2 sequence (Q12163 103-180, looked up): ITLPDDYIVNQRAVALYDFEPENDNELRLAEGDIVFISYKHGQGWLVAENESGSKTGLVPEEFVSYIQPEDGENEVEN

T3: Boi1, P38041
T3 sequence (P38041 1-86, looked up): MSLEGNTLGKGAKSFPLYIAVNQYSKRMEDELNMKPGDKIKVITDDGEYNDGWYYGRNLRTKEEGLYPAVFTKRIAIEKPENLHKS

T4: Cdc25, P04821
T4 sequence (P04821 50-136, looked up): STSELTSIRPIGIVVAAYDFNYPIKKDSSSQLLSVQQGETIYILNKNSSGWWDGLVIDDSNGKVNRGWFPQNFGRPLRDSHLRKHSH

T5: Fus1, P11710
T5 sequence (P11710 432-512, looked up): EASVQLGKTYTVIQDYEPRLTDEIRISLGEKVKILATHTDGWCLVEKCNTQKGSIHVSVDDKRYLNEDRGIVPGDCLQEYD

T6: Bzz1-1, P38822
T6 sequence (P38822 478-572, looked up): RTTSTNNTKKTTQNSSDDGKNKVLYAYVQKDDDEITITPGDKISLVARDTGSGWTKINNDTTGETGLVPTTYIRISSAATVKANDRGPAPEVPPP

T7: Lsb3, P43603
T7 sequence (P43603 385-451, looked up): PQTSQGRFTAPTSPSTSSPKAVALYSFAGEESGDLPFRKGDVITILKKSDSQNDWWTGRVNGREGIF

T8: Bbc1, P47068
T8 sequence (P47068 1-78, looked up): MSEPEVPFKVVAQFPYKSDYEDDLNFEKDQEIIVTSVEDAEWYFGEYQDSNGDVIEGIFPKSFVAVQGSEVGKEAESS

T9: Pin3, Q06449
T9 sequence (Q06449 53-122, looked up): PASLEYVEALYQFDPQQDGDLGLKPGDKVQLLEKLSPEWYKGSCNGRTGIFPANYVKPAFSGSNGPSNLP

T10: Sla1-3, P32790
T10 sequence (P32790 344-424, looked up): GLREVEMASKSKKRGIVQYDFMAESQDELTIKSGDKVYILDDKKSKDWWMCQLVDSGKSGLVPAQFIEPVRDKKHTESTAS

T11: Cyk3, Q07533
T11 sequence (Q07533 1-83, looked up): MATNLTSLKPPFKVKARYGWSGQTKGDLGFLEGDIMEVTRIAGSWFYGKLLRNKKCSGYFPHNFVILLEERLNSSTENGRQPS

T12: Bud14, P27637
T12 sequence (P27637 247-328, looked up): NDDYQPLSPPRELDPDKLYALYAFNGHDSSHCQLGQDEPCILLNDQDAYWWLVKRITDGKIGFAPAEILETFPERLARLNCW

T13: Hof1, Q05080
T13 sequence (Q05080 590-669, looked up): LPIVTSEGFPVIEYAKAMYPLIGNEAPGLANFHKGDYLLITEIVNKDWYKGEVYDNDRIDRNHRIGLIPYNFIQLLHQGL

T14: Myo5, Q04439
T14 sequence (Q04439 1072-1160, looked up): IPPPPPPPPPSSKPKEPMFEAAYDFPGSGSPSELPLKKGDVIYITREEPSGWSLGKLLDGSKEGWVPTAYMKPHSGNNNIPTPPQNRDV

T15: Bzz1-2, P38822
T15 sequence (P38822 568-633, looked up): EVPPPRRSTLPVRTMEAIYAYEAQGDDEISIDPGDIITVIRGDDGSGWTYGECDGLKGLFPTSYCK

T16: Lsb4, P32793
T16 sequence (P32793 402-468, looked up): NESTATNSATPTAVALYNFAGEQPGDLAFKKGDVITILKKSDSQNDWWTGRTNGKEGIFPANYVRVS

T17: Hse1, P38753
T17 sequence (P38753 208-285, looked up): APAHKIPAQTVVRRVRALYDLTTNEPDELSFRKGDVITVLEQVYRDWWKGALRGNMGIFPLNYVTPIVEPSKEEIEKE

T18: Boi2, P39969
T18 sequence (P39969 32-116, looked up): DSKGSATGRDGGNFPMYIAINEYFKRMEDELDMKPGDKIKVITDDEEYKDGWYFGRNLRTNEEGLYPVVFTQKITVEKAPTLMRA

T19: Sla1-2, P32790
T19 sequence (P32790 60-140, looked up): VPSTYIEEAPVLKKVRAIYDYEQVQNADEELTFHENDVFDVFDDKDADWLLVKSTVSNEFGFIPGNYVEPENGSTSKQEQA

T20: Abp1, P15891
T20 sequence (P15891 535-592, looked up): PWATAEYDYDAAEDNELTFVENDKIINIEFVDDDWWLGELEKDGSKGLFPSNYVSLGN

T21: Pex13, P80667
T21 sequence (P80667 295-386, looked up): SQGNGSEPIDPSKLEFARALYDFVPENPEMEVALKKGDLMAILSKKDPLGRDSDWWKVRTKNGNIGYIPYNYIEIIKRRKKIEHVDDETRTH


How the values were obtained:
Assay in all cases: SPOT array
Lsb1, P53281 = biological target: T1, Lsb1, P53281; conditions: median of control spots 388
GST = conditions: median of control spots 978
Nbp2, Q12163 = biological target: T2, Nbp2, Q12163; conditions: median of control spots 357
Boi1, P38041 = biological target: T3, Boi1, P38041; conditions: median of control spots 1162
Cdc25, P04821 = biological target: T4, Cdc25, P04821; conditions: median of control spots 969
Fus1, P11710 = biological target: T5, Fus1, P11710; conditions: median of control spots 1200
Bzz1-1, P38822 = biological target: T6, Bzz1-1, P38822; conditions: median of control spots 4446
Lsb3, P43603 = biological target: T7, Lsb3, P43603; conditions: median of control spots 406
Bbc1, P47068 = biological target: T8, Bbc1, P47068; conditions: median of control spots 796
Pin3, Q06449 = biological target: T9, Pin3, Q06449; conditions: median of control spots 2171
Bem1-1, P29366 = conditions: median of control spots 4282
Sla1-3, P32790 = biological target: T10, Sla1-3, P32790; conditions: median of control spots 5475
Cyk3, Q07533 = biological target: T11, Cyk3, Q07533; conditions: median of control spots 1451
Myo3, P36006 = conditions: median of control spots 468
Bud14, P27637 = biological target: T12, Bud14, P27637; conditions: median of control spots 956
Hof1, Q05080 = biological target: T13, Hof1, Q05080; conditions: median of control spots 4086
Rvs167, P39743 = conditions: median of control spots 2707
Myo5, Q04439 = biological target: T14, Myo5, Q04439; conditions: median of control spots 471
Bem1-2, P29366 = conditions: median of control spots 4347
Bzz1-2, P38822 = biological target: T15, Bzz1-2, P38822; conditions: median of control spots 4538
Lsb4, P32793 = biological target: T16, Lsb4, P32793; conditions: median of control spots 397
Hse1, P38753 = biological target: T17, Hse1, P38753; conditions: median of control spots 1727
Boi2, P39969 = biological target: T18, Boi2, P39969; conditions: median of control spots 1161
Sla1-2, P32790 = biological target: T19, Sla1-2, P32790; conditions: median of control spots 712
Sho1, P40073 = conditions: median of control spots 1148
Abp1, P15891 = biological target: T20, Abp1, P15891; conditions: median of control spots 935
Pex13, P80667 = biological target: T21, Pex13, P80667; conditions: median of control spots 1341

Chain of Bem1-2, P29366 (P29366 139-227): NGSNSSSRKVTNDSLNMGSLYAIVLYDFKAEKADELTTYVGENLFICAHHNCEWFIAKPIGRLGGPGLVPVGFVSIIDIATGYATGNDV
Chain of Sho1, P40073 (P40073 287-367): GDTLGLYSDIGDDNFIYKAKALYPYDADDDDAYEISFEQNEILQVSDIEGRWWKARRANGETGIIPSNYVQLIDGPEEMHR
Chain of Rvs167, P39743 (P39743 419-482): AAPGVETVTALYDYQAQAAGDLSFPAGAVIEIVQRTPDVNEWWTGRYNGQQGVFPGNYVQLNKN
Chain of Bem1-1, P29366 (P29366 55-141): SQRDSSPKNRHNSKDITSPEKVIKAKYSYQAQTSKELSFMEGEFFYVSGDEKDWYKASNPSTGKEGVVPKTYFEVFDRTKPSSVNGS

Binder	SPOT intensity (Lsb1, P53281)	SPOT intensity (GST)	SPOT intensity (Nbp2, Q12163)	SPOT intensity (Boi1, P38041)	SPOT intensity (Cdc25, P04821)	SPOT intensity (Fus1, P11710)	SPOT intensity (Bzz1-1, P38822)	SPOT intensity (Lsb3, P43603)	SPOT intensity (Bbc1, P47068)	SPOT intensity (Pin3, Q06449)	SPOT intensity (Bem1-1, P29366)	SPOT intensity (Sla1-3, P32790)	SPOT intensity (Cyk3, Q07533)	SPOT intensity (Myo3, P36006)	SPOT intensity (Bud14, P27637)	SPOT intensity (Hof1, Q05080)	SPOT intensity (Rvs167, P39743)	SPOT intensity (Myo5, Q04439)	SPOT intensity (Bem1-2, P29366)	SPOT intensity (Bzz1-2, P38822)	further results
EEEEEHPPLPARRKS	32	0	1	0	0	0	4	683	9	0	0	1	0	0	0	0	222	0	3	3	SPOT intensity (Lsb4, P32793): 590; SPOT intensity (Hse1, P38753): 0; SPOT intensity (Boi2, P39969): 0; SPOT intensity (Sla1-2, P32790): 0; SPOT intensity (Sho1, P40073): 0; SPOT intensity (Abp1, P15891): 0; SPOT intensity (Pex13, P80667): 155
ISNFVPPNLPMRRFK	63	1	1	0	0	0	1	588	199	217	1	3	0	59	8	5	2140	37	7	19	SPOT intensity (Lsb4, P32793): 452; SPOT intensity (Hse1, P38753): 72; SPOT intensity (Boi2, P39969): 0; SPOT intensity (Sla1-2, P32790): 39; SPOT intensity (Sho1, P40073): 65; SPOT intensity (Abp1, P15891): 129; SPOT intensity (Pex13, P80667): 671
DDEDVPPQLPTRTKS	58	1	0	2	0	0	0	556	5	2	0	1	0	0	1	0	1260	0	3	0	SPOT intensity (Lsb4, P32793): 897; SPOT intensity (Hse1, P38753): 2; SPOT intensity (Boi2, P39969): 1; SPOT intensity (Sla1-2, P32790): 0; SPOT intensity (Sho1, P40073): 0; SPOT intensity (Abp1, P15891): 0; SPOT intensity (Pex13, P80667): 97
LKRITSPPLPPRADS	892	0	0	1	0	0	0	566	33	11	0	0	0	75	3	520	4040	4	0	6	SPOT intensity (Lsb4, P32793): 700; SPOT intensity (Hse1, P38753): 38; SPOT intensity (Boi2, P39969): 0; SPOT intensity (Sla1-2, P32790): 0; SPOT intensity (Sho1, P40073): 65; SPOT intensity (Abp1, P15891): 40; SPOT intensity (Pex13, P80667): 145
